The text below walks through data of patent US20160159924A1 (Novo Nordisk, published 2016).

Test [1] deals with T1, recombinant human sc-uPA (human, UniProt P00749 21-431).
T1 construct: 411 amino acid single-chain zymogen expressed in HEK293; the 20-residue signal peptide is not present in the mature protein; also called human single-chain uPA; pro-uPA
Description: SPR, mAb immobilised. The method, then:
The binding affinity to recombinant human sc-uPA protein (SEQ ID NO:1) was measured by surface plasmon resonance (SPR).
(§1) The experiments were performed on a Biacore™ instrument (GE Healthcare) and analysed with the BIAcore 4000 Evaluation Software. Anti-human uPA mAb variants were directly immobilized at 150-600 RU on flow cells of a CM5 sensor chip (GE Healthcare; cat. # BR-1000-12) via amine coupling, respectively. Recombinant human sc-uPA was diluted in HBS-N (GE Healthcare Cat BR-1006-70) with 1% BSA buffer with a dilution factor 3× ranging 1000-0.13 nM. Recombinant human sc-uPA was injected for 60 s, followed by a 600 s dissociation phase. Binding curves were measured at 25° C. with a flow rate of 30 μL/min. Regeneration of the chip surface was performed with pH1.5 Glycine for 25 s at 30 μl/min. Determination of the kinetic parameters was performed by fitting with a 1:1 binding model. Binding affinities were calculated and are stated in Table 17 below.
For orientation: Surface plasmon resonance follows binding to a sensor surface in real time, without labels.

Test [2] addresses T1, recombinant human sc-uPA. Put plainly: SPR, mAb immobilised. The procedure:
The binding affinity to recombinant human sc-uPA protein (SEQ ID […]) was measured by surface plasmon resonance (SPR).
as §1, with “20” for “17”
This is another data set of the same source.

Numbering of substitutions follows the chain as printed. Like-named read-outs stand apart in the source and are kept apart here.

B1: rec0266-0000-0010-VH_D98K (antibody, mouse IgG1, V domains shown)
VH: DVKLVESGGGLVKPGGSLKLSCVASGFTFSSYTMSWVRQTPEKRLEWVATISGGGSHIYYADSVKGRFTISRDNAKNTLYLQMSSLKSEDTAIYYCTRDGRKGSWFAYWGQGTLVTVSA
VL: DIVMTQSPATLSVTPGDRVSLSCRTSQSIGDYLHWYQQKSHESPRLLIKYVSQSISGIPSRFSGSGSGSDFTLSINSVESEDVGVYYCQNSHSFPLTFGSGTKLELKR
As a reminder, the Kd is the concentration at which binding is half-saturated. On to B1, for which the Kd in the test with recombinant human sc-uPA [1] is 2 nM.

B2: rec0266-0000-0010-VH_G96K (antibody, mouse IgG1, V domains shown)
VH: B1 VH with G100K, K102D
VL: B1 VL
In the case of B2, the dissociation constant Kd with recombinant human sc-uPA [1] is 0.95 nM.

B3: rec0266-0000-0010-VH_G96Y (antibody, mouse IgG1, V domains shown)
VH: B1 VH with G100Y, K102D
VL: B1 VL
With B3, in the test with recombinant human sc-uPA [1], the dissociation constant Kd was found to be 13 nM.

B4: rec0266-0000-0010-VH_G99R (antibody, mouse IgG1, V domains shown)
VH: B1 VH with K102D, G103R
VL: B1 VL
Take B4: in the test with recombinant human sc-uPA [1], the dissociation constant Kd was 15 nM.

B5: rec0266-0000-0010-VL_N90G (antibody, mouse IgG1, name in Kabat numbering, V domains shown)
VH: B1 VH with K102D
VL: B1 VL with N90G
For B5, the Kd with recombinant human sc-uPA [2] is 0.68 nM.

B6: rec0266-0000-0010-VH_D98L (antibody, mouse IgG1, V domains shown)
VH: B1 VH with K102L
VL: B1 VL
As to B6, in the test with recombinant human sc-uPA [1], the Kd was 2 nM.

B7: rec0266-0000-0010-VH_D98T (antibody, mouse IgG1, V domains shown)
VH: B1 VH with K102T
VL: B1 VL
As to B7, in the test with recombinant human sc-uPA [1], the dissociation constant Kd stood at 2.2 nM.

B8: rec0266-0000-0010-VH_G99F (antibody, mouse IgG1, V domains shown)
VH: B1 VH with K102D, G103F
VL: B1 VL
With B8, the dissociation constant (Kd) with recombinant human sc-uPA [1] came to 1.7 nM.

B9: rec0266-0000-0010-VH_G96P (antibody, mouse IgG1, V domains shown)
VH: B1 VH with G100P, K102D
VL: B1 VL
As to B9, the Kd with recombinant human sc-uPA [1] was 2.1 nM.

B10: rec0266-0000-0010-VH_G99N (antibody, mouse IgG1, V domains shown)
VH: B1 VH with K102D, G103N
VL: B1 VL
With B10, the dissociation constant Kd with recombinant human sc-uPA [1] was found to be 18 nM.

B11: rec0266-0000-0010-VH_G99V (antibody, mouse IgG1, V domains shown)
VH: B1 VH with K102D, G103V
VL: B1 VL
Consider B11, for which, in the test with recombinant human sc-uPA [1], the dissociation constant Kd was 2.5 nM.

B12: rec0266-0000-0010-VH_D98R (antibody, mouse IgG1, V domains shown)
VH: B1 VH with K102R
VL: B1 VL
As to B12, the Kd with recombinant human sc-uPA [1] was found to be 1.1 nM.

B13: rec0266-0000-0010-VH_G99P (antibody, mouse IgG1, V domains shown)
VH: B1 VH with K102D, G103P
VL: B1 VL
Take B13: the Kd with recombinant human sc-uPA [1] was 2.5 nM.

B14: rec0266-0000-0010-VH_G96L (antibody, mouse IgG1, V domains shown)
VH: B1 VH with G100L, K102D
VL: B1 VL
For the molecule B14, the dissociation constant Kd in the test with recombinant human sc-uPA [1] was found to be 1.9 nM.

B15: rec0266-0000-0010-VH_G99S (antibody, mouse IgG1, V domains shown)
VH: B1 VH with K102D, G103S
VL: B1 VL
Take B15: the Kd with recombinant human sc-uPA [1] was 0.41 nM.

B16: rec0266-0000-0010-VH_G99K (antibody, mouse IgG1, V domains shown)
VH: B1 VH with K102D, G103K
VL: B1 VL
For B16, the Kd in the test with recombinant human sc-uPA [1] amounted to 4.8 nM.

B17: rec0266-0000-0010-VH_G96E (antibody, mouse IgG1, V domains shown)
VH: B1 VH with G100E, K102D
VL: B1 VL
B17: in the test with recombinant human sc-uPA [1], the dissociation constant (Kd) was found to be 2.3 nM.

B18: rec0266-0000-0010-VH_G96I (antibody, mouse IgG1, V domains shown)
VH: B1 VH with G100I, K102D
VL: B1 VL
For B18, in the test with recombinant human sc-uPA [1], the Kd turned out to be 1.8 nM.

B19: rec0266-0000-0010-VH_D98V (antibody, mouse IgG1, V domains shown)
VH: B1 VH with K102V
VL: B1 VL
Consider B19, for which the Kd with recombinant human sc-uPA [1] worked out at 2.1 nM.

B20: rec0266-0000-0010-VH_G99A (antibody, mouse IgG1, V domains shown)
VH: B1 VH with K102D, G103A
VL: B1 VL
Take B20: the Kd in the test with recombinant human sc-uPA [1] amounted to 2.4 nM.

B21: rec0266-0000-0010-VH_G99E (antibody, mouse IgG1, V domains shown)
VH: B1 VH with K102D, G103E
VL: B1 VL
For the molecule B21, the Kd with recombinant human sc-uPA [1] was determined as 1.4 nM.

B22: rec0266-0000-0010-VH_G96V (antibody, mouse IgG1, V domains shown)
VH: B1 VH with G100V, K102D
VL: B1 VL
On to B22, for which, in the test with recombinant human sc-uPA [1], the Kd is 2.1 nM.

B23: rec0266-0000-0010-VH_D98S (antibody, mouse IgG1, V domains shown)
VH: B1 VH with K102S
VL: B1 VL
For B23, in the test with recombinant human sc-uPA [1], the Kd was determined as 14 nM.

B24: rec0266-0000-0010-VH_G96N (antibody, mouse IgG1, V domains shown)
VH: B1 VH with G100N, K102D
VL: B1 VL
As for B24, in the test with recombinant human sc-uPA [1], the dissociation constant Kd amounted to 21 nM.

B25: rec0266-0000-0010-VH_G96R (antibody, mouse IgG1, V domains shown)
VH: B1 VH with G100R, K102D
VL: B1 VL
With B25, the dissociation constant (Kd) with recombinant human sc-uPA [1] was 3 nM.

B26: rec0266-0000-0010-VH_G96T (antibody, mouse IgG1, V domains shown)
VH: B1 VH with G100T, K102D
VL: B1 VL
Take B26: the Kd in the test with recombinant human sc-uPA [1] was 3 nM.

B27: rec0266-0000-0010-VL_N90E (antibody, mouse IgG1, name in Kabat numbering, V domains shown)
VH: B1 VH with K102D
VL: B1 VL with N90E
As for B27, in the test with recombinant human sc-uPA [2], the Kd turned out to be 0.43 nM.

B28: rec0266-0000-0010-VL_N90F (antibody, mouse IgG1, name in Kabat numbering, V domains shown)
VH: B1 VH with K102D
VL: B1 VL with N90F
B28: the dissociation constant (Kd) with recombinant human sc-uPA [2] came to 0.79 nM.

B29: rec0266-0000-0010-VH_G96S (antibody, mouse IgG1, V domains shown)
VH: B1 VH with G100S, K102D
VL: B1 VL
Take B29: the Kd in the test with recombinant human sc-uPA [1] came out at 1.3 nM.

B30: rec0266-0000-0010-VH_D98P (antibody, mouse IgG1, V domains shown)
VH: B1 VH with K102P
VL: B1 VL
Take B30: in the test with recombinant human sc-uPA [1], the Kd was found to be 0.98 nM.

B31: rec0266-0000-0010-VH_G99T (antibody, mouse IgG1, V domains shown)
VH: B1 VH with K102D, G103T
VL: B1 VL
On to B31, for which the Kd with recombinant human sc-uPA [1] turned out to be 5.4 nM.

B32: rec0266-0000-0010-VH_G99Y (antibody, mouse IgG1, V domains shown)
VH: B1 VH with K102D, G103Y
VL: B1 VL
For B32, the Kd in the test with recombinant human sc-uPA [1] was found to be 1.8 nM.

B33: rec0266-0000-0010-VH_G96A (antibody, mouse IgG1, V domains shown)
VH: B1 VH with G100A, K102D
VL: B1 VL
B33: the Kd with recombinant human sc-uPA [1] worked out at 1.5 nM.

B34: rec0266-0000-0010-VH_G99H (antibody, mouse IgG1, V domains shown)
VH: B1 VH with K102D, G103H
VL: B1 VL
As for B34, in the test with recombinant human sc-uPA [1], the Kd turned out to be 27 nM.

B35: rec0266-0000-0010-VH_G99I (antibody, mouse IgG1, V domains shown)
VH: B1 VH with K102D, G103I
VL: B1 VL
With B35, the dissociation constant (Kd) with recombinant human sc-uPA [1] was determined as 4.6 nM.

B36: rec0266-0000-0010-VH_G96H (antibody, mouse IgG1, V domains shown)
VH: B1 VH with G100H, K102D
VL: B1 VL
With B36, the Kd with recombinant human sc-uPA [1] was found to be 5.8 nM.

B37: rec0266-0000-0010-VH_G99L (antibody, mouse IgG1, V domains shown)
VH: B1 VH with K102D, G103L
VL: B1 VL
Regarding B37, the Kd with recombinant human sc-uPA [1] was determined as 2.1 nM.

B38: rec0266-0000-0010-VH_D98Y (antibody, mouse IgG1, V domains shown)
VH: B1 VH with K102Y
VL: B1 VL
In the case of B38, in the test with recombinant human sc-uPA [1], the Kd amounted to 1.8 nM.

B39: rec0266-0000-0010-VH_G96F (antibody, mouse IgG1, V domains shown)
VH: B1 VH with G100F, K102D
VL: B1 VL
With B39, the Kd in the test with recombinant human sc-uPA [1] was 7.2 nM.
